Experimental data: paper PMC4075756 (Nature, 2011)

Molecular target: the molecule itself
Assay: SEC + other: sucrose gradient centrifugation

B1: rat dynamin 1 lacking the proline-rich domain (Dyn1 ΔPRD) (domain or fragment)
chain: MGNRGMEDLIPLVNRLQDAFSAIGQNADLDLPQIAVVGGQSAGKSSVLENFVGRDFLPRGSGIVTRRPLVLQLVNSTTEYAEFLHCKGKKFTDFEEVRLEIEAETDRVTGTNKGISPVPINLRVYSPHVLNLTLVDLPGMTKVPVGDQPPDIEFQIRDMLMQFVTKENCLILAVSPANSDLANSDALKIAKEVDPQGQRTIGVITKLDLMDEGTDARDVLENKLLPLRRGYIGVVNRSQKDIDGKKDITAALAAERKFFLSHPSYRHLADRMGTPYLQKVLNQQLTNHIRDTLPGLRNKLQSQLLSIEKEVDEYKNFRPDDPARKTKALLQMVQQFAVDFEKRIEGSGDQIDTYELSGGARINRIFHERFPFELVKMEFDEKELRREISYAIKNIHGIRTGLFTPDLAFEATVKKQVQKLKEPSIKCVDMVVSELTSTIRKCSEKLQQYPRLREEMERIVTTHIREREGRTKEQVMLLIDIELAYMNTNHEDFIGFANAQQRSNQMNKKKTSGNQDEILVIRKGWLTINNIGIMKGGSKEYWFVLTAENLSWYKDDEEKEKKYMLSVDNLKLRDVEKGFMSSKHIFALFNTEQRNVYKDYRQLELACETQEEVDSWKASFLRAGVYPERVGDKEKASETEENGSDSFMHSMDPQLERQVETIRNLVDSYMAIVNKTVRDLMPKTIMHLMINNTKEFIFSELLANLYSCGDQNTLMEESAEQAQRRDEMLRMYHALKEALSIIGDINTTTVST
stoichiometry N: 2
